Measured values as given in US10865391B2, “Glutamate dehydrogenase mutants and their application in preparation of L-phosphinothricin” (ZHEJIANG UNIVERSITY, priority 2018, dated 2020).
Substitutions are numbered along the chain they refer to. In names and notes the source's numbering stands.

B1: PpGluDH-A167G: PpGluDH mutant, alanine 167 to glycine, SEQ ID NO. 1 (protein)
chain: MSTMIESVDNFLARLKQRDPGQPEFHQAVEEVLRTLWPFLEANPHYLQSGILERMVEPERAVLFRVSWVDDQGKVQVNRGYRIQMSSAIGPYKGGLRFHPSVNLSVLKFLAFEQVFKNSLTSLPMGGGKGGSDFDPKGKSDAEVMRFCQAFMSELYRHIGADCDVPGGDIGVGAREIGFMFGQYKRLANQFTSVLTGKGMTYGGSLIRPEATGYGCVYFAEEMLKRQDKRIDGRRVAVSGSGNVAQYAARKVMDLGGKVISLSDSEGTLYAEAGLTDAQWDALMELKNVKRGRISELAGQFGLEFRKGQTPWSLPCDIALPCATQNELGAEDARTLLRNGCICVAEGANMPTTLEAVDIFLDAGILYAPGKASNAGGVAVSGLEMSQNAMRLLWTAGEVDSKLHNIMQSIHHACVHYGEEADGRINYVKGANIAGFVKVADAMLAQGVV
modifications: Pseudomonas putida glutamate dehydrogenase mutant
B2: PpGluDH-V378A: PpGluDH mutant, valine 378 to alanine, SEQ ID NO. 2 (protein)
chain: B1 chain with G167A, V378A
modifications: Pseudomonas putida glutamate dehydrogenase mutant
B3: LsGluDHp-A175G: LsGluDHp mutant A175G, SEQ ID NO. 7 (protein)
chain: MTITTVSNEQLAKEYVDGVFEQLKQQNCHQAEFLQAAEEIFISLVPVFVQHPEYIKANILSRIVEPDRIISFRVAWQDDHNQVQVNRGYRVQYSNVMGPYKGGLRFHPSVNESIIKFLGFEQIFKNALTGQPIGGGKGGSNFDPKGKSDSEIMRFCQAFMTELYRHIGPDVDVPGGDIGVGAREVGYLWGQYKRLTKASESGVLTGKTPGYGGSLARKEATGYGTVYFVNEMLKDVNDSFEGKTVVVSGSGNVSTYAIEKAQQYGAKVVACSDSSGYIYDPEGLDLDVIKEIKEVKGDRISTYVSYRPNATFTNGCTGIWTIPCDIALPCATQNEINGESARTLISNGVKAIGEGANMPSDLEAINEFLNAGVLFGPAKAANAGGVAVSALEMAQDSSRVFWSFEEVDAKLHQIMKDIYSDSKAAAEKYGFPGNLVMGANIAGFIKVADGMLTEGIY
modifications: Lysinibacillus sphaericus glutamate dehydrogenase mutant

Assays:
Assay type in all cases: biochemical
[1] = Specific activity of pure enzyme toward PPO; settings: for Specific activity of pure enzyme: purified protein; for Specific activity, times higher than that of wild type: versus wild type PpGluDH
Procedure: The recombinant E. coli carrying glutamate dehydrogenase gene used in the present invention is constructed and kept by our laboratory. The vector used is pET-28a(+), and the host used is E. coli BL21(DE3). NI-NTA resin (HisPur™ Ni-NTA Resin) used for protein purification is purchased from Thermo Scientific™; protein purification is carried out in reference to specifications.
(§1) The standard enzyme activity measurement system: Appropriate amount of enzyme, 100 mM substrate, 10 mM coenzyme (NADH or NADPH), 500 mM NH4^+ ((NH4)2SO4); total system volume is up to 400 μL; reaction medium is pH 7.5 phosphate buffer. 35° C. reaction for 10 min; after that, add 40 uL 5 M NaOH to terminate reaction.
(§2) Definition of enzyme activity unit: The quantity of enzyme as required by generation of 1 μmol L-phosphinothricin per minute under standard reaction conditions.
Meanwhile, specific activity of pure enzyme obtained through purification has also been measured. As measured, specific activity of pure protein of wild type PpGluDH is 0.31 U/mg; specific activity of PpGluDH-A167G is 38.13 U/mg, which is 123 times higher than that of wild type; specific activity of PpGluDH-V378A is 35.96 U/mg, which is 116 times higher than that of wild type.

[2] = Preparation of L-phosphinothricin by coupling glutamate dehydrogenase with glucose dehydrogenase; settings: 500 mM PPO, NADP+, 35° C., pH 7.5, 6 h
Procedure: (§3) The reaction process is monitored by measuring the concentration of substrate in the reaction solution applying high-performance liquid chromatography (HPLC). HPLC analysis method is stated as follows: column model: Pntulips® QS-C18, 5 μm, 4.6 mm×250 mm. Mobile phase: 50 mM (NH4)2HPO4, added 1% of 10% tetrabutyl ammonium hydroxide, adjusted to pH 3.6 with 50% phosphoric acid(mass fraction), added 8% acetonitrile. Detective wave length is 205 nm; flow rate is 1.0 mL/min. Column temperature is 40° C.
(§4) The enantiomeric excess and concentration of product are determined through pre-column derivatization high-performance liquid chromatography; the specific analysis method is stated as follows:
(§5) (1) HPLC condition: column model: Pntulips® QS-C18, 5 μm, 4.6 mm×250 mm. Mobile phase: 50 mM Sodium acetate: Acetonitrile=8: 0.5 (v/v). Detective wave length: 338 nm. Flow rate: 0.85 mL/min. Column temperature: 30° C.
(§6) (2) Derivatization reagent: Weigh 0.03 g phthalaldehyde and 0.1 g N-acetyl-L-cysteine, and use 400 uL ethanol for solubilization; after that, add 4 mL 0.2 mol/L borate buffer (pH 9.8) and shake for dissolution prior to storage in the fridge under the temperature of 4° C. (no more than 4 days).
(§7) (3) Derivatization reaction and analysis: Add 150 μL derivatization reagent into 100 μL sample, mix and incubate at 25° C. for 5 min, and then inject 20 μL for analysis.
Culture recombinant E. coli expressing glutamate dehydrogenase (PpGluDH) and glucose dehydrogenase (BsGDH-2M, SEQ ID NO. 21) with method in Step 3 of Embodiment 1; proceed with centrifugal collection of cells and ultrasonic cell disruption to prepare crude enzyme solution.
(§8) The final volume of the reaction is 30 mL; each sample contains 500 mM substrate PPO, 600 mM glucose, 250 mM (NH4)2SO4 and 0.5 mM NADP^+. Concentration of glutamate dehydrogenase cells (dry weight) is 1.0 g/L; concentration of glucose dehydrogenase cells (dry weight) is 1.25 g/L. Use water bath to control the reaction temperature at 35° C.; titrate ammonia to control pH at 7.5 during the reaction process. Use non-chiral HPLC to determine residual concentration of PPO after reaction for 6 h; meanwhile, use pre-column derivatization HPLC to determine the concentration and ee value of formed L-phosphinothricin.
as §8, with “0.5” for “1.0”
as §8, with “NAD^+.” for “NADP^+.”, “1.25” for “1.0”
The final volume of the reaction is 30 mL; each sample contains 500 mM substrate PPO, 600 mM glucose, 250 mM (NH4)2SO4 and 0.5 mM NAD^+. Concentration of glutamate dehydrogenase cells (dry weight) is 1.25 g/L; concentration of glucose dehydrogenase cells (dry weight) is 1.25 g/L. Use water bath to control the reaction temperature at 35° C.; titrate ammonia to control pH at 7.5 during the reaction process. […]

[3] = Standard enzyme activity measurement toward PPO, crude enzyme (per volume fermentation broth); settings: for Enzyme activity (per volume fermentation broth): 100 mM substrate, 10 mM coenzyme, 500 mM NH4+, pH 7.5, 35° C., 10 min; for Enzyme activity (per volume fermentation broth), times higher than that of wild type: versus wild type PpGluDH
Procedure: The preserved recombinant E. coli is streaked onto the plate for activation. Single colonies are picked and inoculated into 5 mL LB liquid medium containing 50 μg/mL kanamycin and cultured at 37° C. for 12 h. The culture is transferred to 50 mL fresh LB liquid medium containing 50 μg/mL kanamycin at a 2% inoculum, and then incubated at 37° C. until the OD600 reaches 0.6; after that, add IPTG to a final concentration of 0.5 mM, and then proceed with induction culture under the temperature of 18° C. for 16 h.
After the cultivation, the culture is centrifuged at 10000 rpm for 10 min; discard supernatant, and collect cells. The harvested cells are washed for 2 times using pH 7.5 50 mM phosphate buffer. After that, the cells are re-suspend into the pH 7.5 phosphate buffer and disrupted ultrasonically (400W for 30 times, Ultrasonic time is 3 s, and the interval is 7 s). The cell disrupted solution is centrifuged at 12000 g for 5 min at 4° C. to remove the precipitate, and the supernatant obtained is the crude enzyme containing recombinant glutamate dehydrogenase
as §1, §2
Proceed with induction culture of constructed mutants, and prepare crude enzyme solution.

[4] = Preparation of L-phosphinothricin by coupling glutamate dehydrogenase with alcohol dehydrogenase; settings: 500 mM PPO, 750 mM isopropanol, TBADH, NADP+, GluDH cells 0.5 g/L, 35° C., pH 7.5, 12 h
Procedure: as §3, §4, §5, §6, §7
Culture recombinant E. coli expressing glutamate dehydrogenase (LsGluDHp-A175G, SEQ ID NO. 7) and alcohol dehydrogenase (TBADH, WP_041589967.1) with method in Step 3 of Embodiment 1; proceed with centrifugal collection of cells and ultrasonic cell disruption to prepare crude enzyme solution.
The final volume of the reaction is 30 mL; each sample contains 500 mM substrate PPO, 750 mM isopropanol, 250 mM (NH4)2SO4 and 0.5 mM NADP^+. Concentration of glutamate dehydrogenase cells (dry weight) is 0.5 g/L; concentration of alcohol dehydrogenase cells (dry weight) is 2.5 g/L. Use water bath to control the reaction temperature at 35° C.; titrate ammonia to control pH at 7.5 during the reaction process. […]

| Molecule | Specific activity of pure enzyme [1] [U/mg] | Specific activity, times higher than that of wild type [1] [times] | concentration of formed L-phosphinothricin ([2]; GluDH cells 1.0 g/L) [g/L] | residual PPO ([2]; GluDH cells 1.0 g/L) [mM] | substrate conversion ([2]; GluDH cells 1.0 g/L) [%] | Enzyme activity (per volume fermentation broth) ([3]; toward PPO, crude enzyme) [U/mL] | Enzyme activity (per volume fermentation broth), times higher than that of wild type ([3]; toward PPO) [times] | concentration of formed L-phosphinothricin ([2]; GluDH cells 0.5 g/L) [g/L] | residual PPO ([2]; GluDH cells 0.5 g/L) [mM] | substrate conversion ([2]; GluDH cells 0.5 g/L) [%] | Fold change [3] | Enzyme activity of mutants (U/mL) ([3]; toward PPO, crude enzyme, standard system, N.D. = no detectable activity) | concentration of formed L-phosphinothricin [4] [g/L] | residual PPO [4] [mM] | substrate conversion [4] [%] |
| --- | --- | --- | --- | --- | --- | --- | --- | --- | --- | --- | --- | --- | --- | --- | --- |
| B1 | 38.13 | 123 | 83.7 | 0.9 | 99.8 | 14.85 | 135 | – | – | – | – | – | – | – | – |
| B2 | 35.96 | 116 | 81.9 | 1.2 | 99.8 | 13.3 | 121 | – | – | – | – | – | – | – | – |
| B3 | – | – | – | – | – | – | – | 82.4 | 0 | 100 | 1641 | 34.47 | 81.3 | 1.3 | 99.7 |
